Source: patent publication US20110124071A1, “METHODS AND COMPOSITIONS FOR PRODUCING HYDROCARBONS” (priority 2009, published 2011)

Tests used:
[1] = tested on: E. coli MG1655 ΔfadD lacZ::Ptrc-′tesA; assay: Heterologous expression in a fatty aldehyde-producing E. coli strain with MSMEG—5739, GC-MS; assay type: cell-based; conditions: decarbonylase coexpressed with carboxylic acid reductase MSMEG—5739
[2] = In vitro decarbonylation enzyme assay with purified Npun02004178 protein, GC/MS; assay type: biochemical; conditions: 30 μM protein, 200 μM octadecanal, spinach ferredoxin, ferredoxin reductase, 1 mM NADPH, 37° C., 2 h
Protocol: The genomic DNA encoding N. punctiforme PCC73102 Npun02004178 (SEQ ID NO: 5) was cloned into the NdeI and XhoI sites of vector pET-15b under the control of the T7 promoter. The resulting Npun02004178 protein contained an N-terminal His-tag. An E. coli BL21 strain (DE3) (Invitrogen) was transformed with the plasmid by routine chemical transformation techniques. Protein expression was carried out by first inoculating a colony of the E. coli strain in 5 ml of LB media supplemented with 100 mg/L of carbenicillin and shaken overnight at 37° C. to produce a starter culture. This starter cultures was used to inoculate 0.5 L of LB media supplemented with 100 mg/L of carbenecillin. […] Protein concentration was determined using the Bradford assay (Biorad). […]
To test Npun02004178 protein for decarbonylation activity, the following enzyme assays were set-up. […] Samples were analyzed by GC/MS using the following parameters: run time: 13.13 min; column: HP-5-MS Part No. 19091S-433E (length of 30 meters; I.D.: 0.25 mm narrowbore; film: 0.25ìM); inject: 1ìl Agilent 6850 inlet; inlet: 300 C splitless; carrier gas: helium; flow: 1.3 ml/min; oven temp: 75° C. hold 5 min, 320 at 40° C./min, 320 hold 2 min; det: Agilent 5975B VL MSD; det. temp: 330° C.; scan: 50-550 M/Z. Heptadecane from Sigma was used as an authentic reference for determining compound retention time and fragmentation pattern.

[3] = tested on: E. coli MG1655; assay: Coexpression of putative decarbonylase with S. elongatus PCC7942 orf1594 in E. coli, GC-MS of extracts; assay type: cell-based; conditions: coexpressed with S. elongatus PCC7942 orf1594 in E. coli MG1655, M9 minimal media
Protocol: After a 1 μl splitless injection (inlet temperature held at 300° C.) onto the GC/MS column, the oven was held at 100° C. for 3 mins. The temperature was ramped up to 320° C. at a rate of 20° C./min. The oven was held at 320° C. for an additional 5 min. The flow rate of the carrier gas helium was 1.3 ml/min. The MS quadrapole scanned from 50 to 550 m/z. Retention times and fragmentation patterns of product peaks were compared with authentic references to confirm peak identity.
The genomic DNA encoding Synechococcus elongatus PCC7942 orf1594 (YP—400611; putative aldehyde-generating enzyme) (SEQ ID NO: 65) was amplified and cloned into the NcoI and EcoRI sites of vector OP-80 (pCL1920 derivative) under the control of the Ptrc promoter. The resulting construct (“OP80-PCC7942—1594”) was transformed into E. coli MG1655 and the cells were grown at 37° C. in M9 minimal media with 1% (w/v) glucose as carbon source and supplemented with 100 μg/ml spectinomycin. When the culture reached OD600 of 0.8-1.0, it was induced with 1 mM IPTG and cells were grown for an additional 18-20 h at 37° C. Cells from 0.5 ml of culture were extracted with 0.5 ml of ethyl acetate. After sonication for 60 min, the sample was centrifuged at 15,000 rpm for 5 min. The solvent layer was analyzed by GC-MS as described in Example 1.
The genomic DNA encoding Synechococcus elongatus PCC7942 orf1593 (YP—400610; putative decarbonylase) (SEQ ID NO: 1) was amplified and cloned into the NdeI and XhoI sites of vector OP-183 (pACYC derivative) under the control of the Ptrc promoter. The resulting construct was cotransformed with OP80-PCC7942—1594 into E. coli MG1655 and the cells were grown at 37° C. in M9 minimal media supplemented with 100 μg/ml spectinomycin and 100 μg/ml carbenicillin. The cells were cultured and extracted as in Example 3 and analyzed by GC-MS as described in Example 1. […]

B1: Npun02004178: Nostoc punctiforme PCC73102 putative decarbonylase (SEQ ID NO: 5) (protein)
chain: MQQLTDQSKELDFKSETYKDAYSRINAIVIEGEQEAHENYITLAQLLPESHDELIRLSKMESRHKKGFEACGRNLAVTPDLQFAKEFFSGLHQNFQTAAAEGKVVTCLLIQSLIIECFAIAAYNIYIPVADDFARKITEGVVKEEYSHLNFGEVWLKEHFAESKAELELANRQNLPIVWKMLNQVEGDAHTMAMEKDALVEDFMIQYGEALSNIGFSTRDIMRLSAYGLIGA
modifications: Nostoc punctiforme
[1]
  conversion of fatty aldehydes provided by MSMEG—5739 to alkanes: produced tridecane, pentadecene and pentadecane
[2]
  in-vitro conversion of octadecanal to heptadecane: in-vitro conversion of octadecanal to heptadecane was observed
[3]
  fatty aldehyde decarbonylase activity (alkane/alkene production): active fatty aldehyde decarbonylase
